Experimental findings from patent US20060257938A1, “Method of screening for drugs that block ligand binding to a lipid binding protein” (priority 2005, published 2006) are described below.

Type in all cases: binding
Experiment [1] can be described thus: Probe fluorescence ratio response to arachidonic acid relative to ADIFAB2. As to conditions: arachidonic acid; response relative to ADIFAB2. The gist of the method: (§1)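 Each fatty acid's response was expressed relative to ADIFAB2, the rI-FABP-L72A probe, as ΔR/ΔRreference. ΔR is the change in the background-corrected two-wavelength intensity ratio R=Fλ1/Fλ2 from its analyte-free baseline R0. Emission was read near about 420-480 nm for unbound and about 495-580 nm for FFA-bound probe.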

A short description of experiment [2]: Probe fluorescence ratio response to linolenic acid relative to ADIFAB2. The conditions noted are these: response relative to ADIFAB2. The gist of the method: as §1
Experiment [3] is described as follows: Probe fluorescence ratio response to linoleic acid relative to ADIFAB2. The conditions noted are these: response relative to ADIFAB2. The method in brief:
as §1

The nature of experiment [4]: Probe fluorescence ratio response to oleic acid relative to ADIFAB2. As to conditions: response relative to ADIFAB2. The method in brief:
as §1

Experiment [5] is described as follows: Probe fluorescence ratio response to palmitic acid relative to ADIFAB2. The conditions noted are these: response relative to ADIFAB2. The gist of the method:
as §1

Values joined by “and” are separate entries in the source; they are usually repeats but may differ in a detail not shown here. Identical values can stand only once.

B1: 17D, 72A (protein, listed as Rattus norvegicus)
chain: AFDGTWKVDRNENYEKDMEKMGINVVKRKLGAHDNLKLTITQEGNKFTVKESSNFRNIDVVFELGVDFAYSAADGTELTGTWTMEGNKLVGKFKRVDNGKELIAVREISGNELIQTYTYEGVEAKRIFKKE
modifications: PEPTIDE (1)...(131) wild-type rat intestinal fatty acid binding protein
Take B1: the “DR/DR AA” value in experiment [1] stood at 0.28. Moreover, the “DR/DR LNA” value in experiment [2] worked out at 0.34. Moreover, the “DR/DR LA” value in experiment [3] worked out at 0.31. For the same molecule, the “DR/DR OA” value in experiment [4] was found to be 0.26. Further, the “DR/DR PA” value in experiment [5] is 0.16.

B2: 17F, 72A (protein, listed as Rattus norvegicus)
chain: AFDGTWKVDRNENYEKFMEKMGINVVKRKLGAHDNLKLTITQEGNKFTVKESSNFRNIDVVFELGVDFAYSAADGTELTGTWTMEGNKLVGKFKRVDNGKELIAVREISGNELIQTYTYEGVEAKRIFKKE
modifications: PEPTIDE (1)...(131) wild-type rat intestinal fatty acid binding protein
As for B2, in experiment [1], the “DR/DR AA” value came out at 1.37. Further, the “DR/DR LNA” value in experiment [2] amounted to 1.38. In experiment [3], the “DR/DR LA” value stood at 1.35. Also, the “DR/DR OA” value in experiment [4] worked out at 1.42. In addition, in experiment [5], the “DR/DR PA” value amounted to 1.14.

B3: 17K 72A (protein, listed as Rattus norvegicus)
chain: AFDGTWKVDRNENYEKKMEKMGINVVKRKLGAHDNLKLTITQEGNKFTVKESSNFRNIDVVFELGVDFAYSAADGTELTGTWTMEGNKLVGKFKRVDNGKELIAVREISGNELIQTYTYEGVEAKRIFKKE
modifications: PEPTIDE (1)...(131) wild-type rat intestinal fatty acid binding protein
For B3, in experiment [1], the “DR/DR AA” value is 0.28. Besides, the “DR/DR LNA” value in experiment [2] is 0.29. Besides, in experiment [3], the “DR/DR LA” value amounted to 0.33. For the same molecule, the “DR/DR OA” value in experiment [4] turned out to be 0.31. Also, the “DR/DR PA” value in experiment [5] worked out at 0.13.

B4: 17R, 72A (protein, listed as Rattus norvegicus)
chain: AFDGTWKVDRNENYEKRMEKMGINVVKRKLGAHDNLKLTITQEGNKFTVKESSNFRNIDVVFELGVDFAYSAADGTELTGTWTMEGNKLVGKFKRVDNGKELIAVREISGNELIQTYTYEGVEAKRIFKKE
modifications: PEPTIDE (1)...(131) wild-type rat intestinal fatty acid binding protein
Turning to B4, in experiment [1], the “DR/DR AA” value is on record as 0.43. In addition, in experiment [2], the “DR/DR LNA” value turned out to be 0.48. Besides, the “DR/DR LA” value in experiment [3] worked out at 0.52. The “DR/DR OA” value in experiment [4] is 0.45. Further, in experiment [5], the “DR/DR PA” value came out at 0.22.

B5: 17G, 72A (protein, listed as Rattus norvegicus)
chain: AFDGTWKVDRNENYEKGMEKMGINVVKRKLGAHDNLKLTITQEGNKFTVKESSNFRNIDVVFELGVDFAYSAADGTELTGTWTMEGNKLVGKFKRVDNGKELIAVREISGNELIQTYTYEGVEAKRIFKKE
modifications: PEPTIDE (1)...(131) wild-type rat intestinal fatty acid binding protein
On to B5, for which the “DR/DR AA” value in experiment [1] came out at 0.48. Further, the “DR/DR LNA” value in experiment [2] turned out to be 0.62. In experiment [3], the “DR/DR LA” value worked out at 0.58. For the same molecule, the “DR/DR OA” value in experiment [4] is on record as 0.52. Also, the “DR/DR PA” value in experiment [5] stood at 0.28.

B6: 17N, 72A (protein, listed as Rattus norvegicus)
chain: AFDGTWKVDRNENYEKNMEKMGINVVKRKLGAHDNLKLTITQEGNKFTVKESSNFRNIDVVFELGVDFAYSAADGTELTGTWTMEGNKLVGKFKRVDNGKELIAVREISGNELIQTYTYEGVEAKRIFKKE
modifications: PEPTIDE (1)...(131) wild-type rat intestinal fatty acid binding protein
On to B6, for which the “DR/DR AA” value in experiment [1] was 0.47. In addition, the “DR/DR LNA” value in experiment [2] is recorded as 0.51. Further, in experiment [3], the “DR/DR LA” value worked out at 0.50. Further, the “DR/DR OA” value in experiment [4] is 0.49. Further, in experiment [5], the “DR/DR PA” value stood at 0.22.

B7: 17Q, 72A (protein, listed as Rattus norvegicus)
chain: AFDGTWKVDRNENYEKQMEKMGINVVKRKLGAHDNLKLTITQEGNKFTVKESSNFRNIDVVFELGVDFAYSAADGTELTGTWTMEGNKLVGKFKRVDNGKELIAVREISGNELIQTYTYEGVEAKRIFKKE
modifications: PEPTIDE (1)...(131) wild-type rat intestinal fatty acid binding protein
As to B7, in experiment [1], the “DR/DR AA” value is on record as 0.62. In experiment [2], the “DR/DR LNA” value is reported as 0.59. For the same molecule, in experiment [3], the “DR/DR LA” value was 0.59. The “DR/DR OA” value in experiment [4] amounted to 0.55. For the same molecule, the “DR/DR PA” value in experiment [5] was determined as 0.29.

B8: 102L, 72A (protein, listed as Rattus norvegicus)
chain: AFDGTWKVDRNENYEKFMEKMGINVVKRKLGAHDNLKLTITQEGNKFTVKESSNFRNIDVVFELGVDFAYSAADGTELTGTWTMEGNKLVGKFKRVDNGKELIAVREISGNELIQTYTYEGVEAKRIFKKE
modifications: PEPTIDE (1)...(131) wild-type rat intestinal fatty acid binding protein
Consider B8, for which the “DR/DR AA” value in experiment [1] is 1.25 and 1.103. In addition, the “DR/DR LNA” value in experiment [2] is 1.41 and 1.284. For the same molecule, the “DR/DR LA” value in experiment [3] was 1.40 and 1.267. The “DR/DR OA” value in experiment [4] was 1.40 and 1.366. In experiment [5], the “DR/DR PA” value was 0.97 and 1.012.

B9: 17H, 72A (protein, listed as Rattus norvegicus)
chain: AFDGTWKVDRNENYEKHMEKMGINVVKRKLGAHDNLKLTITQEGNKFTVKESSNFRNIDVVFELGVDFAYSAADGTELTGTWTMEGNKLVGKFKRVDNGKELIAVREISGNELIQTYTYEGVEAKRIFKKE
modifications: PEPTIDE (1)...(131) wild-type rat intestinal fatty acid binding protein
On to B9, for which the “DR/DR AA” value in experiment [1] was 0.52. The “DR/DR LNA” value in experiment [2] was determined as 0.50. Besides, the “DR/DR LA” value in experiment [3] was 0.48. Further, in experiment [4], the “DR/DR OA” value was 0.40. Besides, in experiment [5], the “DR/DR PA” value is given as 0.22.

B10: 17S, 72A (protein, listed as Rattus norvegicus)
chain: AFDGTWKVDRNENYEKSMEKMGINVVKRKLGAHDNLKLTITQEGNKFTVKESSNFRNIDVVFELGVDFAYSAADGTELTGTWTMEGNKLVGKFKRVDNGKELIAVREISGNELIQTYTYEGVEAKRIFKKE
modifications: PEPTIDE (1)...(131) wild-type rat intestinal fatty acid binding protein
With B10, in experiment [1], the “DR/DR AA” value worked out at 0.50. In addition, the “DR/DR LNA” value in experiment [2] is reported as 0.61. Moreover, the “DR/DR LA” value in experiment [3] came to 0.56. In addition, in experiment [4], the “DR/DR OA” value came to 0.47. For the same molecule, the “DR/DR PA” value in experiment [5] was found to be 0.25.

B11: 17P, 72A (protein, listed as Rattus norvegicus)
chain: AFDGTWKVDRNENYEKPMEKMGINVVKRKLGAHDNLKLTITQEGNKFTVKESSNFRNIDVVFELGVDFAYSAADGTELTGTWTMEGNKLVGKFKRVDNGKELIAVREISGNELIQTYTYEGVEAKRIFKKE
modifications: PEPTIDE (1)...(131) wild-type rat intestinal fatty acid binding protein
As to B11, the “DR/DR AA” value in experiment [1] is recorded as 0.51. The “DR/DR LNA” value in experiment [2] is listed as 0.63. The “DR/DR LA” value in experiment [3] was 0.60. Besides, the “DR/DR OA” value in experiment [4] is 0.55. Further, the “DR/DR PA” value in experiment [5] was 0.24.

B12: 17L, 72A (protein, listed as Rattus norvegicus)
chain: AFDGTWKVDRNENYEKLMEKMGINVVKRKLGAHDNLKLTITQEGNKFTVKESSNFRNIDVVFELGVDFAYSAADGTELTGTWTMEGNKLVGKFKRVDNGKELIAVREISGNELIQTYTYEGVEAKRIFKKE
modifications: PEPTIDE (1)...(131) wild-type rat intestinal fatty acid binding protein
Turning to B12, the “DR/DR AA” value in experiment [1] was 0.52 and 0.525. Besides, the “DR/DR LNA” value in experiment [2] was 0.45 and 0.447. Besides, the “DR/DR LA” value in experiment [3] is listed as 0.42. Also, the “DR/DR OA” value in experiment [4] is 0.46 and 0.459. Moreover, the “DR/DR PA” value in experiment [5] is 0.28 and 0.279.

B13: 17I, 72A (protein, listed as Rattus norvegicus)
chain: AFDGTWKVDRNENYEKIMEKMGINVVKRKLGAHDNLKLTITQEGNKFTVKESSNFRNIDVVFELGVDFAYSAADGTELTGTWTMEGNKLVGKFKRVDNGKELIAVREISGNELIQTYTYEGVEAKRIFKKE
modifications: PEPTIDE (1)...(131) wild-type rat intestinal fatty acid binding protein
B13: in experiment [1], the “DR/DR AA” value worked out at 0.64. Further, in experiment [2], the “DR/DR LNA” value is 0.54 and 0.541. Besides, in experiment [3], the “DR/DR LA” value was 0.50 and 0.499. In addition, the “DR/DR OA” value in experiment [4] is 0.62 and 0.624. The “DR/DR PA” value in experiment [5] was 0.28 and 0.283.

B14: 17M, 72A (protein, listed as Rattus norvegicus)
chain: AFDGTWKVDRNENYEKMMEKMGINVVKRKLGAHDNLKLTITQEGNKFTVKESSNFRNIDVVFELGVDFAYSAADGTELTGTWTMEGNKLVGKFKRVDNGKELIAVREISGNELIQTYTYEGVEAKRIFKKE
modifications: PEPTIDE (1)...(131) wild-type rat intestinal fatty acid binding protein
In the case of B14, the “DR/DR AA” value in experiment [1] worked out at 0.59. Further, in experiment [2], the “DR/DR LNA” value is 0.53 and 0.532. Moreover, the “DR/DR LA” value in experiment [3] is 0.49 and 0.489. Also, the “DR/DR OA” value in experiment [4] was 0.49. Also, the “DR/DR PA” value in experiment [5] was 0.28 and 0.281.

B15: 17E, 72A (protein, listed as Rattus norvegicus)
chain: AFDGTWKVDRNENYEKEMEKMGINVVKRKLGAHDNLKLTITQEGNKFTVKESSNFRNIDVVFELGVDFAYSAADGTELTGTWTMEGNKLVGKFKRVDNGKELIAVREISGNELIQTYTYEGVEAKRIFKKE
modifications: PEPTIDE (1)...(131) wild-type rat intestinal fatty acid binding protein
Regarding B15, the “DR/DR AA” value in experiment [1] is listed as 0.80. In addition, the “DR/DR LNA” value in experiment [2] worked out at 0.88. For the same molecule, in experiment [3], the “DR/DR LA” value is 0.90. In addition, in experiment [4], the “DR/DR OA” value amounted to 0.84. Also, the “DR/DR PA” value in experiment [5] amounted to 0.53.
